Measurements reported in patent publication US20210253718A1, “FRIZZLED5 PROTEIN-BINDING AGENTS” (Modmab Therapeutics Corporation, priority 2016, published 2021).
Changes are numbered by the printed parent chain.

T1: FZD10 CRD (Homo sapiens, UniProt Q9ULW2)
T1 construct: 30-156; GPI anchor signal (C); expressed in transfected cells; host or cells: CHO cells, lentiviral pLenti-puro
T1 sequence (Q9ULW2 30-156): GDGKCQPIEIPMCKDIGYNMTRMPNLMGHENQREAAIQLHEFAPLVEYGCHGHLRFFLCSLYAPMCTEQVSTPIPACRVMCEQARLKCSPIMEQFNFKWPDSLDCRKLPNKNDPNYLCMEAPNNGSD

T2: FZD3 CRD (Homo sapiens, UniProt Q9NPG1)
T2 construct: CRD of FZD1, FZD2, FZD3, FZD4, FZD5, FZD6, FZD7, FZD8, FZD9 or FZD10; GPI anchor signal (C); expressed in transfected cells; host or cells: CHO cells, lentiviral pLenti-puro
T2 sequence (Q9NPG1 23-136 limits assumed): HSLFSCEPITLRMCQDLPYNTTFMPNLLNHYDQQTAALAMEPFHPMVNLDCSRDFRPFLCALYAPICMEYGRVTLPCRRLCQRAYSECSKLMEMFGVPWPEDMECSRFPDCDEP

T3: FZD4 CRD (Homo sapiens, UniProt Q9ULV1)
T3 construct: E42-V167; GPI anchor signal (C); expressed in transfected cells; host or cells: CHO cells, lentiviral pLenti-puro
T3 sequence (Q9ULV1 42-167): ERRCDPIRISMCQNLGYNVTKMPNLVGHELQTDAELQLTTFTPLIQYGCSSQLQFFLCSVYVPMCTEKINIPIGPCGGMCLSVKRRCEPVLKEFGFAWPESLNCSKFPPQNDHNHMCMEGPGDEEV

T4: FZD9 CRD (Homo sapiens, UniProt O00144)
T4 construct: G35-A161; GPI anchor signal (C); expressed in transfected cells; host or cells: CHO cells, lentiviral pLenti-puro
T4 sequence (O00144 35-161): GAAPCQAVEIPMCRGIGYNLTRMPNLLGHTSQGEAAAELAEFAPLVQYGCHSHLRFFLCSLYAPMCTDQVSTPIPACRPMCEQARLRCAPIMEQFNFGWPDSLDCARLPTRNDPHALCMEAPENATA

B1: Fab-2911: anti-FZD5 Fab with antibody variable region Fv-2911; CDR SEQ ID NOs: 35, 36, 50, 89, 126, 163 (antibody, V domains shown)
VH: EVQLVESGGGLVQPGGSLRLSCAASGFNIYYSSMHWVRQAPGKGLEWVAYIYPYSGYTSYADSVKGRFTISADTSKNTAYLQMNSLRAEDTAVYYCARYFWWYGFDYWGQGTLVTVSS
VL: DIQMTQSPSSLSASVGDRVTITCRASQSVSSAVAWYQQKPGKAPKLLIYSASSLYSGVPSRFSGSRSGTDFTLTISSLQPEDFATYYCQQGPWYPFTFGQGTKVEIK
B2: Fab-2898: anti-FZD5 Fab with antibody variable region Fv-2898; CDR SEQ ID NOs: 35, 36, 37, 76, 113, 152 (antibody, V domains shown)
VH: EVQLVESGGGLVQPGGSLRLSCAASGFNIYSYSMHWVRQAPGKGLEWVASIYSSSGSTSYADSVKGRFTISADTSKNTAYLQMNSLRAEDTAVYYCARAVWGLDYWGQGTLVTVSS
VL: DIQMTQSPSSLSASVGDRVTITCRASQSVSSAVAWYQQKPGKAPKLLIYSASSLYSGVPSRFSGSRSGTDFTLTISSLQPEDFATYYCQQWWGYYSLITFGQGTKVEIK
B3: Fab-2903: anti-FZD5 Fab with antibody variable region Fv-2903; CDR SEQ ID NOs: 35, 36, 42, 81, 118, 155 (antibody, V domains shown)
VH: EVQLVESGGGLVQPGGSLRLSCAASGFNLSYYYIHWVRQAPGKGLEWVASIYPYSSYTSYADSVKGRFTISADTSKNTAYLQMNSLRAEDTAVYYCARGAIDYWGQGTLVTVSS
VL: B2 VL with W92G, Y94G, Y95S, I98F
B4: Fab-2909: anti-FZD5 Fab with antibody variable region Fv-2909; CDR SEQ ID NOs: 35, 36, 48, 87, 124, 161 (antibody, V domains shown)
VH: EVQLVESGGGLVQPGGSLRLSCAASGFNISSSYMHWVRQAPGKGLEWVASISSSSGYTSYADSVKGRFTISADTSKNTAYLQMNSLRAEDTAVYYCARTVRGSKKPYFSGWAMDYWGQGTLVTVSS
VL: B2 VL with W91S, G93S, Y95H, S96Y
B5: Fab-2901: anti-FZD5 Fab with antibody variable region Fv-2901; CDR SEQ ID NOs: 35, 36, 40, 79, 116, 154 (antibody, V domains shown)
VH: EVQLVESGGGLVQPGGSLRLSCAASGFNISYSYMHWVRQAPGKGLEWVASIYSYSSYTYYADSVKGRFTISADTSKNTAYLQMNSLRAEDTAVYYCARSWYYWSPSSGMDYWGQGTLVTVSS
VL: DIQMTQSPSSLSASVGDRVTITCRASQSVSSAVAWYQQKPGKAPKLLIYSASSLYSGVPSRFSGSRSGTDFTLTISSLQPEDFATYYCQQGGFLITFGQGTKVEIK

Molecular target: T5, FZD1 CRD (Homo sapiens, UniProt Q9UP38)
T5 construct: D112-P238; GPI anchor signal (C); expressed in transfected cells; host or cells: CHO cells, lentiviral pLenti-puro
Test: Immunofluorescence of anti-FZD5 Fab binding to CHO cells overexpressing Frizzled CRD
Parameters: key: −: no binding; +: very weak binder; ++: weak binder; +++: good binder; ++++: very good binder
How it was run: (§1)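 CHO panel, 10 lines, each w/ one human FZD CRD-myc-GPI (lentiviral). Anti-FZD5 Fabs applied; surface binding scored by IF, cross-checked by FACS.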

Molecule	Immunofluorescence binding, Frizzled CRD overexpressed on CHO cells: FZD1
B1	++
B2	++++
B3	+
B4	−

Molecular target: T1, FZD10 CRD
Test: as above
Parameters: key: −: no binding; +: very weak binder; ++: weak binder; +++: good binder; ++++: very good binder
How it was run: as §1

Molecule	Immunofluorescence binding, Frizzled CRD overexpressed on CHO cells: FZD10
B5	−
B1	−
B2	−
B3	−
B4	−

Molecular target: T2, FZD3 CRD
Test: as above
Parameters: key: −: no binding; +: very weak binder; ++: weak binder; +++: good binder; ++++: very good binder
How it was run: as §1

Molecule	Immunofluorescence binding, Frizzled CRD overexpressed on CHO cells: FZD3
B5	−
B1	−
B2	−
B3	−
B4	−

Molecular target: T3, FZD4 CRD
Test: as above
Parameters: key: −: no binding; +: very weak binder; ++: weak binder; +++: good binder; ++++: very good binder
How it was run: as §1

Molecule	Immunofluorescence binding, Frizzled CRD overexpressed on CHO cells: FZD4
B5	−
B1	−
B2	−
B3	−
B4	−

Molecular target: T4, FZD9 CRD
Test: as above
Parameters: key: −: no binding; +: very weak binder; ++: weak binder; +++: good binder; ++++: very good binder
How it was run: as §1

Molecule	Immunofluorescence binding, Frizzled CRD overexpressed on CHO cells: FZD9
B5	−
B1	−
B2	−
B3	−
B4	−
